Reference: US9119806B2, “Culturing circular ssDNA viruses for the production of vaccines” (priority 2007, dated 2015)

What was measured:
Type in all cases: cell-based, Porcine circovirus 2
[1] = test system: PCV2 proteins in PK-15 cells; assay: Expression kinetics of PCV2 proteins (capsid, REP) in PK-15 cells, immunofluorescence
Procedure: To determine the timing and localisation of PCV2 proteins expression (Capsid protein and REP), PK-15 cells were seeded on glass cover slips and inoculated with PCV2. After inoculation, culture medium was added with or without 500 U/ml IFN-gamma. At 0, 12, 24, 36, 48 and 72 hpi the cells were fixed in methanol at −20° C. Afterwards, a triple immunofluorescence staining was performed to visualize both viral proteins and the cell nucleus. PCV2 capsid protein was detected using purified biotinylated porcine polyclonal anti-PCV2 immunoglobulins which only react with PCV2 capsid proteins. Bound porcine immunoglobulins were visualized with streptavidin conjugated Texas Red (molecular probes, Leiden, The Netherlands). In a second step, the REP protein was detected with a specific mouse monoclonal antibody (F210) visualized with goat-anti-mouse FITC (molecular probes, Leiden, The Netherlands). In a final step, the nuclei of the cells were visualized with Hoechst 33342 (Molecular Probes, Oreg., USA) at a concentration of 0.1 mg/ml. The number of cells with capsid and/or REP protein was counted and the localisation of viral antigens was monitored by fluorescence microscopy.

[2] = test system: PCV2-infected 3D4/31 cells; assay: Number of PCV2-infected 3D4/31 cells (IPMA) after cytokine treatment; conditions: for increase in PCV2-positive cells: 3D4/31
From the text: In order to use cells, more related to the target cells in vivo, the monocytic cell line 3D4/31 was used to confirm the effect of the different cytokines on the number of PCV2-infected cells. The 3D4/31 cell line is a porcine monomyeloid cell lines that was established following transfection of primary porcine alveolar macrophage cultures with plasmid pSV3neo, carrying genes for neomycin resistance and SV40 large T antigen. (Weingartl et al. (2002) J Virol Methods. 10, 203-216). These cells were maintained in a 1:1 mixture of RPMI-1640 (Invitrogen) and DMEM (Invitrogen) supplemented with 10% fetal bovine serum, 0.3 mg/ml glutamine, 100 U/ml penicillin, 0.1 mg/ml streptomycin, 0.1 mg/ml kanamycin and 1% non-essential amino acids 100× (GIBCO BRL®, Grand Island, USA). These experiments were also performed in 96-well plates containing the same number of cells. Furthermore, to monitor the effect of IFN-gamma on the entry of PCV2 virion-like particles was determined, 3D4/31 cells were seeded at 2×10^5 cells/ml of medium onto microscopic slides mounted with an 8 well cell culture silicone chamber (Vivascience AG, Hanover). In all inoculations, the same PCV2-strain (Stoon-1010) was used at a multiplicity of infection of 0.01. The virus was diluted in MEM and inoculated on the cell cultures by incubating cells and virus for 1 hour at 37° C. After 1 hour, the inoculum was removed, the cultures were washed twice with MEM and new culture medium was added.
The influence of the cytokines on the infection of PCV2 in PK-15 and 3D4/31 cells was determined by adding two-fold-dilution series of the cytokines to the medium of the cells before, during or after the inoculation. IL-1, IL-6, […] and IFN-alpha were used in concentrations ranging from 0.25-250 Units/ml (U/ml), IFN-gamma was used in concentrations ranging from 0.25-1000 U/ml and IL-10 was used in concentrations from 0.13-125 U/ml. Cell cultures were either pre-treated with the cytokines for 24 hours before inoculation, treated during the inoculation or the cytokines were added in the medium after the inoculation. After 36 hours of incubation at 37° C. in an environment supplemented with 5% CO2, the cells were fixed by drying and frozen at −20° C. The plates were stained with an immuno-peroxydase monolayer assay (IPMA) as described by Sanchez et al. (2003, Vet Microbiol 95, 15-25) and the number of PCV2-positive cells was counted by light microscopy. In each plate a control was inoculated with an equal dose of mock-treated PCV2 (treated with MEM without cytokines). The number of infected cells in this well was used as the reference and all results were expressed as a ratio to this reference.

[3] = test system: PCV2 capsids on 3D4/31 cells; assay: Attachment of PCV2 capsids (virion-like particles) on 3D4/31 cells; conditions: 4° C., 0-60 minutes
Procedure: The attachment of PCV2 capsids onto untreated 3D4/31 cells and 3D4/31 cells pre-treated with IFN-gamma was studied as described by Misinzo et al. (J Gen Virol. conditionally accepted for publication). Briefly, treated and untreated 3D4/31 cells were chilled on ice and washed before PCV2 capsids were added and allowed to attach for 0, 1, 5, 10, 15, 30 and 60 minutes at 4° C. Unbound PCV2 capsids were washed-off and cells were fixed with 3% (w/v) paraformaldehyde in phosphate-buffered saline with calcium and magnesium (PBS+) at room temperature for 10 minutes. In order to stain the PCV2 capsids, cells were incubated with biotin-conjugated anti-PCV2 swine polyclonal antibodies and streptavidin-FITC (Molecular Probes, Leiden, The Netherlands) for 1 hour at room temperature. The slides were mounted and analysed by acquisition of digital images of stained PCV2 capsids using a Leica TCS SP2 laser scanning spectral confocal system (Leica Microsystems GmbH, Heidelberg, Germany) linked to a Leica DM/IRB inverted microscope (Leica Microsystems GmbH, Wetzlar, Germany). Successive images from the apex to the base of a single cell were taken and merged. The number of PCV2 capsids attached per cell was counted for ten cells at each time point to establish their binding kinetics into 3D4/31 cells.

[4] = test system: PCV2 capsids in 3D4/31 cells; assay: Entry (internalization) of PCV2 recombinant capsids in 3D4/31 cells; conditions: 3D4/31 cells treated with IFN-gamma
Procedure: To study the internalization of recombinant capsids on 3D4/31, cells were washed with RPMI-1640 at 37° C. and then incubated with capsids at 37° C. for 15 minutes followed by washing of unbound capsids. Cells were then fixed with a 3% solution of paraformaldehyde (rPBS) for 10 minutes at 30, 60 and 120 minutes since the addition of capsids into the cells, washed with PBS, and permeabilized in a 0.1% Triton X-100 solution in rPBS. Capsids were stained by incubating the calls with a biotin-conjugated anti-PCV2 swine polyclonal antibody followed by streptavidin-FITC (Molecular Probes, Eugene, Oreg.).

[5] = treated (500 U/ml) and non-treated PK-15 cells

B1: IFN-gamma: Porcine interferon gamma purchased from R&D systems (protein, UniProt P17803 24-166, looked up)
Interferon gamma: QAPFFKEITILKDYFNASTSDVPNGGPLFLEILKNWKEESDKKIIQSQIVSFYFKFFEIFKDNQAIQRSMDVIKQDMFQRFLNGSSGKLNDFEKLIKIPVDNLQIQRKAISELIKVMNDLSPRSNLRKRKRSQTMFQGQRASK
For B1, the “influence on sequence of events of PCV2 protein expression (in words)” value ([1]; PK-15, 500 U/ml after inoculation) was “did not influence”, the “first nuclear localisation of both proteins” value ([1]; both cultures) was 24 hpi and the “first detection of REP protein” value [1, 5] was 24 hpi. The “first detection of capsid protein” value [1, 5] was 12 hpi, the “increase in PCV2-positive cells” value ([2]; treated after inoculation) was 523±115% and the “increase in PCV2-positive cells” value ([2]; treated before inoculation) was 806±88%. For the same molecule, the “increase in PCV2-positive cells” value ([2]; treated during inoculation) was 214±16%, the “change in the number of PCV2-positive cells (in words)” value ([2]; 3D4/31 cells, any concentration, before, during or after inoculation) was “dose-dependent increase” and the “number of attached virion-like particles per cell and binding kinetics (in words)” value [3] was “No differences were observed”. The “number of internalized virions (in words)” value [4] was “significant increase”.
